Data as given in EP4335870A1 (NantCell, Inc., dated 2024).

B1: N-612-017 (antibody, V domains shown)
VH: EVQLVESGGGLVQPGGSLRLSCAASGFTFSSYAMHWVRQAPGKGLEWVSAIWGSGSNTYYADSVKGRFTISRDNSKNTLYLQMNSLRAEDTAVYYCARGRDLAAFTKTAFDVWGQGTLVTVSS
VL: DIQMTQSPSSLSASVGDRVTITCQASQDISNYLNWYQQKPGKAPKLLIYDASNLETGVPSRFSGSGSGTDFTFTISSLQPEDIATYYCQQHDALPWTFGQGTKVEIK
B2: N-612-017-5B05 SV (antibody, V domains shown)
VH: EVQLVESGGGLVQPGGSLRLSCAASGFTFSSYVMHWVRQAPGKGLEWVSAIWGSGSNTYYADSVKGRFTISVDNSKNTLYLQMNSLRAEDTAVYYCARGEELAAFTKTAFDVWGQGTLVTVSS
VL: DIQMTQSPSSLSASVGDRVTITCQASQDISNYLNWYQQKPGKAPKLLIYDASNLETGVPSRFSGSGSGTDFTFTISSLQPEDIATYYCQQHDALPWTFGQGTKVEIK
B3: N-612-014 (antibody, V domains shown)
VH: EVQLVESGGGLVQPGGSLRLSCAASGFTFSSYAMTWVRQAPGKGLEWVSYISGSGGGTYYADSVKGRFTISRDNSKNTLYLQMNSLRAEDTAVYYCARDRWASGWLAFDVWGQGTLVTVSS
VL: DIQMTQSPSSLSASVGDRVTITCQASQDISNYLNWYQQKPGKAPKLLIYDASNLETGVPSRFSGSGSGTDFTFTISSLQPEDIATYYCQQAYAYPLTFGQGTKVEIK
B4: N-612-007 (antibody, V domains shown)
VH: EVQLVESGGGLVQPGGSLRLSCAASGFTFSNYAMHWVRQAPGKGLEWVSAISGNGGSTGYADSVKGRFTISRDNSKNTLYLQMNSLRAEDTAVYYCARDRWYVKNAFDVWGQGTLVTVSS
VL: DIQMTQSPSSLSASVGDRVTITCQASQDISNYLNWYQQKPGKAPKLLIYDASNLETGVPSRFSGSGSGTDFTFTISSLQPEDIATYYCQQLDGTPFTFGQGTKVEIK
B5: N-612-004 (antibody, V domains shown)
VH: EVQLVESGGGLVQPGGSLRLSCAASGFTFSSYYMHWVRQAPGKGLEWVSAISGSGGYTYYADSVKGRFTISRDNSKNTLYLQMNSLRAEDTAVYYCARDRDHAYDWGFDVWGQGTLVTVSS
VL: DIQMTQSPSSLSASVGDRVTITCQASQDISNYLNWYQQKPGKAPKLLIYDASNLETGVPSRFSGSGSGTDFTFTISSLQPEDIATYYCQQWADWPLTFGQGTKVEIK
B6: N-612-056 (antibody, V domains shown)
VH: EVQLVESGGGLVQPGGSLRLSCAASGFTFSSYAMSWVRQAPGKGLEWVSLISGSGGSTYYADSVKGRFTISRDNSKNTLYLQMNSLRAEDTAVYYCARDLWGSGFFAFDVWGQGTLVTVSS
VL: DIQMTQSPSSLSASVGDRVTITCQASQDISNYLNWYQQKPGKAPKLLIYDASNLETGVPSRFSGSGSGTDFTFTISSLQPEDIATYYCQQDAGTPLTFGQGTKVEIK
B7: N-612-056-21 (antibody, V domains shown)
VH: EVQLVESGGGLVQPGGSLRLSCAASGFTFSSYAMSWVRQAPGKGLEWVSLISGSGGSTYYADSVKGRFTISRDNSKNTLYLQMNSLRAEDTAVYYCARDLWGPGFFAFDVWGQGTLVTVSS
VL: DIQMTQSPSSLSASVGDRVTITCQASQDISNYLNWYQQKPGKAPKLLIYDASNLETGVPSRFSGSGSGTDFTFTISSLQPEDIATYYCQQDAGTPLTFGQGTKVEIK

Experiments:
[1] = target: SARS-CoV-2 Spike receptor binding domain (RBD), wildtype (SARS-CoV-2, UniProt P0DTC2 319-541)
[2] = target: SARS-CoV-2 Spike protein on live SARS-CoV-2 (SARS-CoV-2, UniProt P0DTC2 14-1273); experiment: cell-based or functional assay

| Binder | Kd [1] | live SARS-CoV-2 neutralization IC50 [2] |
| --- | --- | --- |
| B1 | 5.29 nM | 0.0756 µg/mL |
| B2 | 6.62 nM |  |
| B3 |  | 0.00791 µg/mL |
| B4 |  | 0.0452 µg/mL |
| B5 |  | 0.194 µg/mL |
| B6 | 2.98 nM | 0.855 µg/mL |
| B7 | 0.41 nM |  |
